{"source": "patent US8772452B2", "about": "“Calcium-binding photoprotein” (JNC Corporation, priority 2009, dated 2014)", "molecules": {"B1": {"name": "recombinant clytin-ESNA: Holoprotein (calcium-binding photoprotein) regenerated from recombinant apoclytin-ESNA (SEQ ID NO: 2/6) and coelenterazine (protein)", "chain": "VKLRPNFDNPKWVNRHKFMFNFLDINGDGKITLDEIVSKASDDICAKLGATPEQTKRHQDAVEAFFKKIGMDYGKEVEFPAFVDGWKELANYDLKLWSQNKKSLIRDWGDAVFDIFDKDGSGSISLDEWKAYGRISGICPSDEDAEKTFKHCDLDNSGKLDVDEMTRQHLGFWYTLDPTSDGLYGNFVP", "modifications": "coelenterazine"}}, "key": {"[1]": {"assay": "Luminescence pattern triggered by addition of calcium (luminescence plate reader Centro LB960)", "type": "biochemical", "protocol": "The luminescence activity of the recombinant clytin-ESNA of EXAMPLE 4 was measured as follows. After mixing 2-mercaptoethanol (1 μl) and substrate coelenterazine (1 μg/μl dissolved in ethanol) with 30 mM Tris-HCl (pH 7.6) containing 10 mM EDTA, the recombinant apoclytin-ESNA at each purification step was added to the mixture. The reaction was carried out on ice (4° C.) for 2 hours to regenerate recombinant clytin-ESNA. The luminescence reaction was triggered by adding a 50 mM calcium solution (100 μl/well) to 1 μl of this regenerated recombinant clytin-ESNA solution. The luminescence activity was measured for 10 seconds using a luminescence plate reader Centro LB960 (manufactured by Berthold) and expressed in terms of the maximum luminescence intensity (Imax).\nIn order to compare the luminescence properties between the recombinant clytin-ESNA (CLI-ESNA) obtained in EXAMPLE 5 and other holoproteins (aequorin (AQ)), clytin-I (CL-I), clytin-II (CL-II)) and obelin (Ob)), the luminescence patterns triggered by the addition of calcium were compared.\nThe luminescence patterns of CLI-ESNA, AQ, CL-I, CL-II and Ob were measured as follows. […] The luminescence reaction was initiated by adding 100 μl/well of a 50 mM calcium solution to this reconstitution solution. […]"}, "[2]": {"assay": "Bioluminescence emission spectrum on addition of CaCl2 (JASCO FP-6500, excitation source off)", "type": "physicochemical", "conditions": "0.1 ml of 50 mM CaCl2 added to 1 ml of 50 mM Tris-HCl (pH 7.6), 0.02 mg protein", "protocol": "Bioluminescence emission spectra of the recombinant clytin-ESNA obtained in EXAMPLE 4, 5) were measured in a quartz cell having a 10 mm optical path under the given conditions (band width for emission/excitation: 20 nm, response: 0.5 sec, scan speed: 2000 nm/min) using a fluorescence spectrophotometer (JASCO FP-6500) with the excitation source turned off."}}}
{"molecule": "B1", "values": [{"measurement": "decay pattern of the luminescence patterns", "setting": "[1]; 100 μl/well of 50 mM calcium solution, measured for 10 seconds, as compared to AQ, Cl-I, Ob", "result": "rapid decay pattern"}, {"measurement": "S/N ratio", "setting": "[1]; compared with Cl-I, luminescence triggered by calcium", "result": "higher S/N ratio than Cl-I"}, {"measurement": "bioluminescence emission maximum wavelength", "setting": "[2]", "result": 470, "unit": "nm"}]}
